From patent US20250304927A1, “PRO-PEPTIDE VARIANTS FOR MODULATING ACTIVITY OF TRANSGLUTAMINASES” (CURIE CO. INC., priority 2022, published 2025)

T1: thermostable variant of Streptomyces mobaraensis transglutaminase (Streptomyces mobaraensis, UniProt P81453 79-407)
T1 sequence: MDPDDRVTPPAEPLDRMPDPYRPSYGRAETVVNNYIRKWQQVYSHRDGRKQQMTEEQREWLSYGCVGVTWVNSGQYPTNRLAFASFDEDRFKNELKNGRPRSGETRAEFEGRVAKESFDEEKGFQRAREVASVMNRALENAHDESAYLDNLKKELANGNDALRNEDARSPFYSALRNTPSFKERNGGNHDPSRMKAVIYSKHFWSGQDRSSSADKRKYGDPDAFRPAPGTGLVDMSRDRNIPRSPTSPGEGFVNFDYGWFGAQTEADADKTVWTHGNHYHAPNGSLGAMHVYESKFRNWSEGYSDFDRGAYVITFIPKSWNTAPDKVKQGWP


How the values were obtained:
[1] = molecular target: T1, thermostable variant of Streptomyces …; assay: cell-based or functional assay
[2] = molecular target: T1, thermostable variant of Streptomyces …; assay: cell-based or functional assay; remark: listed apart in the source

| Improvement in pH responsiveness of inhibitory peptide relative to WT [1] [fold] | Improvement in binding affinity of inhibitory peptide relative to WT [2] [fold] | Binder |
| --- | --- | --- |
| > 1.2 | > 1.2 | MDNGAGERTKSYAETYRLTADDVANINALNESAPAASSAGPSFRAP [pro-peptide variant E8R] |
| > 1.2 | > 1.2 | MDNGAGEETKSYAETYRLTADDVANINALNESAPAASSAGPSFRAQ [pro-peptide variant P46Q] |
| > 1.2 | > 1.2 | MDNGAGEEVKSYAETYRLTADDVANINALNESAPAASSAGPSFRAP [pro-peptide variant T9V] |
| > 5 | > 1.2 | MDNGAGEETKSYASTYRLTADDVANINALNESAPAASSAGPSFRAP [pro-peptide variant E14S] |
| > 1.2 | > 1.2 | MDNGAGEETKSYAEVYRLTADDVANINALNESAPAASSAGPSFRAP [pro-peptide variant T15V] |
| > 1.2 | > 1.2 | MDNGAGEETKSYAETYRLTADDVANINALNESAPAASTAGPSFRAP [pro-peptide variant S38T] |
| > 1.2 | > 1.2 | MDNGAGEETKSYAEDYRLTADDVANINALNESAPAASSAGPSFRAP [pro-peptide variant T15D] |
| > 1.2 | > 1.2 | MDNGAGEETKSYAETYRLTAFDVANINALNESAPAASSAGPSFRAP [pro-peptide variant D21F] |
| > 1.2 | > 1.2 | MDNGAGEETKSYAETYRLTADDVANINALNESAPAASSAGPSFRAC [pro-peptide variant P46C] |
| > 1.2 | > 1.2 | MDNGAGEETKSYAETYRLTACDVANINALNESAPAASSAGPSFRAP [pro-peptide variant D21C] |
| > 1.2 | > 1.2 | MDNGAGETTKSYAETYRLTADDVANINALNESAPAASSAGPSFRAP [pro-peptide variant E8T] |
| > 1.2 | > 1.2 | MDNGAGEELKSYAETYRLTADDVANINALNESAPAASSAGPSFRAP [pro-peptide variant T9L] |
| > 1.2 | > 1.2 | MDNGAGEEWKSYAETYRLTADDVANINALNESAPAASSAGPSFRAP [pro-peptide variant T9W] |
| > 5 | > 1.2 | MDNGAGEETKSYAETYRLTAMDVANINALNESAPAASSAGPSFRAP [pro-peptide variant D21M] |
| > 1.2 | > 1.2 | MDNGAGEETKSYAETYRLTADDVANINALNESAPAASSAGPSFRAI [pro-peptide variant P46I] |
| > 1.2 | > 1.2 | MDNGAGEETKSYAETYRLTADDVANINALNESAPAASSAGPSFRAK [pro-peptide variant P46K] |
| > 1.2 | > 1.2 | MDNGAGEETKSYAETYRLTADAVANINALNESAPAASSAGPSFRAP [pro-peptide variant D22A] |
| > 1.2 | > 1.2 | MDNGAGEETKSYAETYRLTASDVANINALNESAPAASSAGPSFRAP [pro-peptide variant D21S] |

| Improvement in pH responsiveness of inhibitory peptide relative to WT [1] [fold] | Improvement in binding affinity of inhibitory peptide relative to WT [2] [fold] | Binder |
| --- | --- | --- |
| > 1.2 | > 1.2 | MDNGAGEETKSYAETYRLTADDVANINALNESAPAASSAGPSFRAA [pro-peptide variant P46A] |
| > 5 | > 1.2 | MDNGAGEETKSYAETYRLTADDVANINALNESAPAASSAGPSFRAN [pro-peptide variant P46N] |
| > 1.2 | > 1.2 | MDNGAGEETKSYAETYRLTADDVANINALNESAPAASHAGPSFRAP [pro-peptide variant S38H] |
| > 1.2 | > 1.2 | MDNGAGEETKSYAETYRLTADDVANINALNESAPAASVAGPSFRAP [pro-peptide variant S38V] |
| > 1.2 | > 1.2 | MDNGAGEETKSYAETYRITADDVANINALNESAPAASSAGPSFRAP [pro-peptide variant L18I] |
| > 1.2 | > 1.2 | MDNGAGEETKSYAETYRLTADDVANINALNESAPAASSAGPSFRAE [pro-peptide variant P46E] |
| > 1.2 | > 1.2 | MDNGAGEETKSYAETYRLTAVDVANINALNESAPAASSAGPSFRAP [pro-peptide variant D21V] |
| > 1.2 | > 1.2 | MDNGAGEEHKSYAETYRLTADDVANINALNESAPAASSAGPSFRAP [pro-peptide variant T9H] |
| > 1.2 | > 1.2 | MDNGAGEEYKSYAETYRLTADDVANINALNESAPAASSAGPSFRAP [pro-peptide variant T9Y] |
| > 1.2 | > 1.2 | MDNGAGEETKSYAQTYRLTADDVANINALNESAPAASSAGPSFRAP [pro-peptide variant E14Q] |
| > 1.2 | > 1.2 | MDNGAGEEGKSYAETYRLTADDVANINALNESAPAASSAGPSFRAP [pro-peptide variant T9G] |
| > 1.2 | > 1.2 | MDNGAGEETKSYAETYRLTADDVANINALNESAPAASSAGPSFRAD [pro-peptide variant P46D] |
| > 1.2 | > 1.2 | MDNGAGEEKKSYAETYRLTADDVANINALNESAPAASSAGPSFRAP [pro-peptide variant T9K] |
| > 1.2 | > 1.2 | MDNGAGEEAKSYAETYRLTADDVANINALNESAPAASSAGPSFRAP [pro-peptide variant T9A] |
| > 1.2 | > 1.2 | MDNGAGEETKSYAETYRLTADDVANINALNESAPAASFAGPSFRAP [pro-peptide variant S38F] |
| > 5 | > 1.2 | MDNGAGEETKSYAETYRLTADDVVNINALNESAPAASSAGPSFRAP [pro-peptide variant A24V] |
| > 1.2 | > 1.2 | MDNGAGEETKSYAETYRLTADDVANINALNESAPAASSAGPSFRAL [pro-peptide variant P46L] |
| > 1.2 | > 1.2 | MDNGAGEERKSYAETYRLTADDVANINALNESAPAASSAGPSFRAP [pro-peptide variant T9R] |
